US20220153793A1 (SINAI HEALTH SYSTEM, published 2022)

Key:
CIP2A (endogenous) = CIP2A (endogenous) (human, UniProt Q8TCG1 1-905); experiment: LacR/LacO assay in U2OS lacO256 cells, endogenous CIP2A at the lacO array
GST-CIP2A (1-560) = molecular target: T1, GST-CIP2A (1-560) (human, UniProt Q8TCG1 1-560); experiment: GST pull-down with bacterially produced proteins on glutathione resin, immunoblot anti-MBP
T1 construct: Expressed in Escherichia coli and coupled to glutathione sepharose 4B; not shown: Glutathione S-transferase tag of vector pGEX4T1
Procedure: MBP and GST proteins expressed in Escherichia coli were purified on amylose (New England Biolabs) or glutathione sepharose 4B (GE Healthcare) resins according to the batch method described by the manufacturer and stored in 20 mM Tris-HCl pH 8.0, 150 mM NaCl, 1 mM DTT, 5% glycerol. […] Beads were extensively washed prior to analysis by immunoblotting.

binding result (CIP2A (endogenous))	binding result (GST-CIP2A (1-560))	Binder
no binding		mCherry-LacR-TOPBP1 3A (other, also called Flag-LacR-TOPBP1^3A; not shown: The mCherry-LacR carrier (Flag-LacR in the legend and methods) and its linker) MSRNDKEPFFVKFLKSSDNSKCFFKALESIKEFQSEEYLQIITEEEALKIKENDRSLYICDPFSGVVFDHLKKLGCRIVGPQVVIFCMHHQRCVPRAEHPVYNMVMSDVTISCTSLEKEKREEVHKYVQMMGGRVYRDLNVSVTHLIAGEVGSKKYLVAANLKKPILLPSWIKTLWEKSQEKKITRYTDINMEDFKCPIFLGCIICVTGLCGLDRKEVQQLTVKHGGQYMGQLKMNECTHLIVQEPKGQKYECAKRWNVHCVTTQWFFDSIEKGFCQDESIYKTEPRPEAKTMPNSSTPTSQINTIDSRTLSDVSNISNINASCVSESICNSLNSKLEPTLENLENLDVSAFQAPEDLLDGCRIYLCGFSGRKLDKLRRLINSGGGVRFNQLNEDVTHVIVGDYDDELKQFWNKSAHRPHVVGAKWLLECFSKGYMLSEEPYIHANYQPVEIPVSHKPESKAALLKKKNSSFSKKDFAPSEKHEQADEDLLSQYENGSSTVVEAKTSEARPFNDSTHAEPLNDSTHISLQEENQSSVSHCVPDVSTITEEGLFSQKSFLVLGFSNENESNIANIIKENAGKIMSLLSRTVADYAVVPLLGCEVEATVGEVVTNTWLVTCIDYQTLFDPKSNPLFTPVPVMTGMTPLEDCVISFSQCAGAEKESLTFLANLLGASVQEYFVRKSNAKKGMFASTHLILKERGGSKYEAAKKWNLPAVTIAWLLETARTGKRADESHFLIENSTKEERSLETEITNGINLNSDTAEHPGTRLQTHRKTVVTPLDMNRFQSKAFRAVVSQHARQVAASPAVGQPLQKEPSLHLDTPSKFLSKDKLFKPSAAAKDALAALETPGRPSQQKRKPSTPLSEVIVKNLQLALANSSRNAVALSASPQLKEAQSEKEEAPKPLHKVVVCVSKKLSKKQSELNGIAASLGADYRWSFDETVTHFIYQGRPNDTNREYKSVKERGVHIVSEHWLLDCAQECKHLPESLYPHTYNPKMSLDISAVQDGRLCNSRLLSAVSSTKDDEPDPLILEENDVDNMATNNKESAPSNGSGKNDSKGVLTQTLEMRENFQKQLQEIMSATSIVKPQGQRTSLSRSGCNSASSTPDSTRSARSGRSRVLEALRQSRQTVPDVNTEPSQNEQIIWDDPTAREERARLASNLQWPSCPTQYSELQVDIQNLEDSPFQKPLHDSEIAKQAVCDPGNIRVTEAPKHPISEELETPIKDSHLIPTPQAPSIAFPLANPPVAPHPREKIITIEETHEELKKQYIFQLSSLNPQERIDYCHLIEKLGGLVIEKQCFDPTCTHIVVGHPLRNEKYLASVAAGKWVLHRSYLEACRTAGHFVQEEDYEWGSSSILDVLTGINVQQRRLALAAMRWRKKIQQRQESGIVEGAFSGWKVILHVDQSREAGFKRLLQSGGAKVLPGHSVPLFKEATHLFSDLNKLKPDDSGVNIAEAAAQNVYCLRTEYIADYLMQESPPHVENYCLPEAISFIQNNKELGTGLSQKRKAPTEKNKIKRPRVH
	no binding	MBP-TOPBP1756-999-3A (other, not shown: large carriers) LNSDTAEHPGTRLQTHRKTVVTPLDMNRFQSKAFRAVVSQHARQVAASPAVGQPLQKEPSLHLDTPSKFLSKDKLFKPSAAAKDALAALETPGRPSQQKRKPSTPLSEVIVKNLQLALANSSRNAVALSASPQLKEAQSEKEEAPKPLHKVVVCVSKKLSKKQSELNGIAASLGADYRWSFDETVTHFIYQGRPNDTNREYKSVKERGVHIVSEHWLLDCAQECKHLPESLYPHTYNPKMSLDI
